Residue numbers refer to the chain shown, from its start. Names and notes keep the numbering of the source.
B1: Ndy1: JmjC domain-containing histone H3 demethylase, overexpressed from retroviral constructs or immunoprecipitated (protein, UniProt Q6P1G2 1-1309, looked up)
Lysine-specific demethylase 2B: MEAEKDSGRRLRAIDRQRYDENEDLSDVEEIVSVRGFSLEEKLRSQLYQGDFVHAMEGKDFNYEYVQREALRVPLVFRDKDGLGIKMPDPDFTVRDVKLLVGSRRLVDVMDVNTQKGTEMSMSQFVRYYETPEAQRDKLYNVISLEFSHTKLEHLVKRPTVVDLVDWVDNMWPQHLKEKQTEATNALAEMKYPKVKKYCLMSVKGCFTDFHIDFGGTSVWYHVFRGGKIFWLIPPTLHNLALYEEWVLSGKQSDIFLGDRVERCQRIELKQGYTFFIPSGWIHAVYTPVDSLVFGGNILHSFNVPMQLRIYEIEDRTRVQPKFRYPFYYEMCWYVLERYVYCVTQRSYLTQEYQRELMLIDAPRKTSVDGFSSDSWLDMEEESCEQQPQEEEEEEEDKEEEGDGADKTPKPPTDDPTSPTSTPPEDQDSTGKKPKAPAIRFLKRTLSNESEESVKSTSMPTDDPKTPTGSPATEVSTKWTHLTEFELKGLKALVEKLESLPENKKCVPEGIEDPQALLEGVKNVLKEHVDDDPTLAITGVPVVSWPKKTAKNRVVGRPKGKLGPASAVKLAANRTTAGARRRRTRCRKCEACLRTECGECHFCKDMKKFGGPGRMKQSCIMRQCIAPVLPHTAVCLVCGEAGKEDTVEEEEGKFNLMLMECSICNEIIHPGCLKIKESEGVVNDELPNCWECPKCNHAGKTGKQKRGPGFKYASNLPGSLLKEQKMNRDNKEGQEPAKRRSECEEAPRRRSDEHPKKVPADGILRRKSDDVHLRRKRKYEKPQELSGRKRASSLQTSPGSSSHLSPRPPLGSSLSPWWRSSLTYFQQQLKPGKEDKLFRKKRRSWKNAEDRLSLANKPLRRFKQEPEDDLPEAPPKTRESDQSRSSSPTAGPSTEGAEGPEEKKKVKMRRKRRLVNKELSKELSKELNHEIQKTESTLAHESQQPIKSEPESENDEPKRPLSHCERPHRFSKGLNGTPRELRHSLGPGLRSPPRVMSRPPPSASPPKCIQMERHVIRPPPISPPPDSLPLDDGAAHVMHREVWMAVFSYLSHRDLCVCMRVCRTWNRWCCDKRLWTRIDLNRCKSITPLMLSGIIRRQPVSLDLSWTNISKKQLSWLINRLPGLRDLVLSGCSWIAVSALCSSSCPLLRTLDVQWVEGLKDAQMRDLLSPPTDNRPGQMDNRSKLRNIVELRLAGLDITDVSLRLIIRHMPLLSKLQLSYCNHINDQSINLLTAVGTTTRDSLTEVNLSDCNKVTDLCLSFFKRCGNICHIDLRYCKQVTKEGCEQFIAEMSVSVQFGQVEEKLLQKLS
B2: Ndy1 fragment (aa 171-707): bacterially expressed mouse Ndy1 fragment containing the JmjC, CXXC and PHD domains (protein, UniProt Q6P1G2 171-707, looked up, fragment)
chain: MWPQHLKEKQTEATNALAEMKYPKVKKYCLMSVKGCFTDFHIDFGGTSVWYHVFRGGKIFWLIPPTLHNLALYEEWVLSGKQSDIFLGDRVERCQRIELKQGYTFFIPSGWIHAVYTPVDSLVFGGNILHSFNVPMQLRIYEIEDRTRVQPKFRYPFYYEMCWYVLERYVYCVTQRSYLTQEYQRELMLIDAPRKTSVDGFSSDSWLDMEEESCEQQPQEEEEEEEDKEEEGDGADKTPKPPTDDPTSPTSTPPEDQDSTGKKPKAPAIRFLKRTLSNESEESVKSTSMPTDDPKTPTGSPATEVSTKWTHLTEFELKGLKALVEKLESLPENKKCVPEGIEDPQALLEGVKNVLKEHVDDDPTLAITGVPVVSWPKKTAKNRVVGRPKGKLGPASAVKLAANRTTAGARRRRTRCRKCEACLRTECGECHFCKDMKKFGGPGRMKQSCIMRQCIAPVLPHTAVCLVCGEAGKEDTVEEEEGKFNLMLMECSICNEIIHPGCLKIKESEGVVNDELPNCWECPKCNHAGKTGKQKRG
B3: 171-707 Ndy1 fragment containing the Y221A mutation: Ndy1 fragment with Y221A mutation, which abolishes the demethylase activity (protein)
chain: B2 chain with Y51A
modifications: left off: small tags and cut ends

Tests used:
bulk histone = experiment: In vitro histone demethylation assay with immunoprecipitated native Ndy1 (Western blot); assay type: biochemical; details: mouse and human Ndy1 immunoprecipitated from MEFs and IMR90 cells
HEK293 cells = experiment: Flow cytometry of global histone modifications in HEK293 cells transfected with Ndy1; assay type: cell-based, human; details: HEK293 cells transiently transfected with Ndy1
Source text: (§1) Using a fluorescence coupled demethylation assay, a bacterially expressed mouse Ndy1 fragment containing the JmjC, CXXC and PHD domains (aa 171-707) was here shown to demethylate both H3K36me2 and H3K4me3 peptides, with high and low efficiencies respectively (FIG. 20 panel B and FIG. 22). Cloning and bacterial expression of Ndy1 fragments was accomplished using fragments 1-701 and 171-701 of mouse Ndy1, which were amplified using specific primers and were cloned directly into pET102/DTOPO vector (Invitrogen) using of the TOPO-cloning methodology. The C-terminally His-tagged fusion proteins were purified from BL21(DE3) cells using Ni2+agarose beads (QIAGEN) and according to the manufacturer instructions. Flow cytometry analysis of histone modifications was determined in HEK293 cells transfected with either pIRES-GFP-empty vector (Stratagene) or the same vector containing the wild type or the H283Y JmjC domain point mutant of Ndy1. […] (Alexa Fluor 635, Invitrogen, #A31577) followed by fluorescence-activated cell sorting using a CyAn high performance flow cytometer (Dako Cytomation).
To confirm the activity and specificity of the Ndy1 histone demethylase in vivo, flow cytometry was used to quantitatively assess the global levels of histone H3K36me2 and H3K4me3 in HEK293 cells transiently transfected with Ndy1.

H3K36me2 peptide = experiment: Fluorescence coupled demethylation assay; assay type: biochemical; details: for efficiency of demethylation of H3K36me2 peptide: bacterially expressed fragment
Description: (§2) For assay of in vitro histone demethylation, cells from a confluent 15 cm dish were harvested and the cell pellet was resuspended in 5 packed cell volumes of Buffer A (10 mM HEPES pH 7.9, 1.5 mM MgCl2, 10 mM KCl, 0.5 mM DTT, and 0.2 mM PMSF) and centrifuged at 1500 rpm for 5 minutes. Buffer A was added up to a final of 3 original packed cell volumes and the suspension was incubated on ice for 10 minutes. Cells were transferred to a Wheaton A Dounce homogenizer and lysed with 10 strokes. Nuclei were pelleted by centrifuging at maximum speed for 5 min in a microcentrifuge. Nuclei were resuspended in Buffer B (20 mM HEPES, pH 7.9, 100 mM KCl, 0.5 mM DTT and 0.2 mM PMSF) and disrupted by sonication. After preclearing with 20 μl protein A-agarose beads, the supernatant was incubated with either myc- or hemagglutinin-specific monoclonal antibody (5 μg/sample) and 20 μl protein A-agarose beads overnight at 4° C., the sample was washed three times with 1 ml Buffer B and the purified immune complex was incubated overnight at 4° C. with myc or HA peptide to release Ndy1/KDM2B from the beads. Demethylation reactions were carried out in 10 mM HEPES pH 7.9, 50 mM NaCl, 1 mM α-ketoglutarate, 2 mM ascorbate, 30-70 μM Fe(NH4)2(SO4)2, 0.25 mg/ml BSA and contained 6 μg of bulk histone per 90 μl reaction. Reactions were incubated at 37° C. for 1-3 hours and analyzed by 18% SDS-PAGE and Western-blotting with histone specific antibodies.
(§3) Fluorescent assays were carried out as previously described (Couture, J. F., et al. (2007) Nat Struct Mol Biol 14, 689-95) under the reaction conditions above. One unit of enzyme activity is determined as amount of Ndy1 that produces 1 μmol of formaldehyde per min, incubated with 340 μM peptide substrate at 37° C. under the above conditions. The sequences of the H3K4(me3) and H3K36(me2) peptides used in the biochemical studies were: ART-K(me3)-QTARKST (SEQ ID NO: 79) and ATGGV-K(me2)-KPHRY (SEQ ID NO: 80) respectively and were synthesized at Tufts University Core facility.
as §1, with “Ndy1. After 48 hours, cells were harvested and fixed in 1% paraformaldehyde for 10 min. Cells were washed twice with PBS, and were permeabilized with 0.5% saponin in PBS for 20 min and were blocked with 3% bovine serum albumin (BSA).” for “Ndy1.”

MEFs = experiment: Ndy1 overexpression in serially passaged MEFs, real time PCR of p16Ink4a and p19Arf mRNA; assay type: cell-based, mouse
Description: FIG. 14 panel B is a set of bar graphs of MEFs overexpressing Ndy1 that were plated at a concentration of 10^5 cells per 6 cm dish and serially passaged. In passage P5, P10, and P15 total mRNA was isolated and analyzed by real time PCR for the relative mRNA levels of p16^Ink4a and p19^Arf. The graphs show the fold decrease of p16^Ink4a and p19^Arf mRNAs in MEFs that overexpress Ndy1 normalized to control empty-vector transduced cells from 3 independent infections.
RNA was isolated with the RNeasy mini kit (Qiagen #74104). cDNAs of these mRNAs were synthesized with RETROscript (Ambion #AM1710). PCR reactions were carried out in triplicate with iQ SYBRGreen Supermix (Bio-Rad #170-8882) in an Opticon2 continuous fluorescence detector (MJ Research). The following set of primers have been used to amplify the mouse: Ezh2: F-5′-ACTGCTGG CACCGTCTGATG-′3 (SEQ ID NO: 38) and R-5′-TCCTGAGAA ATAATCTCCCCACAG-′3 (SEQ ID NO: 39),
p16^Ink4a: F-5′-GTGTGCATGA CGTGCGGG-′3 (SEQ ID NO: 42) and R-5′-GCAGTTCGA ATCTGCACCGTAG-′3 (SEQ ID NO: 43), p19^Arf: F-5′GCTCTGGCT TTCGTGAACATG-′3 (SEQ ID NO: 44) and R-5′-TCGAATCTG CACCGTAG′TTGAG'3 (SEQ ID NO: 45),
Replicative senescence is characterized by the dramatic upregulation of p16^Ink4a (>100-fold, FIG. 16) and p19^Arf (>10-fold). Since, p16^Ink4a inhibits the cyclin D/CDK4-6 complex that mediates the phosphorylation of Rb at Ser807/811, and Ndy1 promotes the phosphorylation of Rb at this site as shown in Examples herein, whether the phosphorylation of Rb in Ndy1-transduced MEFs can be linked to a defect in the induction of the Ink4a/Arf locus was tested. To address this question, the relative levels of p16^Ink4a and p19^Arf mRNA in passaged MEFs stably expressing Ndy1 were determined in examples herein.

H3K4me3 peptide = experiment: Fluorescence coupled demethylation assay; assay type: biochemical; details: bacterially expressed fragment
Description: as §2, §3
as §1, with “Ndy1. After 48 hours, cells were harvested and fixed in 1% paraformaldehyde for 10 min. Cells were washed twice with PBS, and were permeabilized with 0.5% saponin in PBS for 20 min and were blocked with 3% bovine serum albumin (BSA).” for “Ndy1.”

Row | Molecule | H3K4me3 demethylase activity (bulk histone) | H3K36me2 demethylase activity (bulk histone) | histone H3K4me3 demethylase activity in vivo (HEK293 cells) | histone H3K36me2 demethylase activity in vivo (HEK293 cells) | specific activity towards the H3K36me2 versus the H3K4me3 peptide (H3K36me2 peptide; Ndy1 fragments expressed in E. coli) | attenuation of induction of p16Ink4a (MEFs; passage 5, relative to empty vector transduced MEFs) | reduction of induction of p19Arf (MEFs; passage 10) | attenuation of induction of p16Ink4a (MEFs; passage 10, relative to empty vector transduced MEFs) [%] | reduction of induction of p19Arf (MEFs; passage 15) [%] | attenuation of induction of p16Ink4a (MEFs; passage 15, relative to empty vector transduced MEFs) [%] | efficiency of demethylation of H3K4me3 peptide (H3K4me3 peptide) | efficiency of demethylation of H3K36me2 peptide (H3K36me2 peptide)
1 | B1 | weak | strong | weak | strong | three times higher | about 55% | about 43% | ~62 | ~34 | ~90 |  | 
2 | B2 |  |  |  |  |  |  |  |  |  |  | low | high
3 | B3 |  |  |  |  |  |  |  |  |  |  | failed to demethylate | failed to demethylate

From patent US20110008302A1, “Compositions and methods for immortalizing cells and screening for anti-cancer agents” (priority 2007, published 2011)
